From patent US8722850B2, “Self-assembling peptides and their use in the formation of hydrogels” (Universita' Degli Studi di Milano Bicocca, priority 2010, dated 2014)
“Also recorded” adds a separate entry of the source. The star is where a group is joined. Biotin = O=C1N[C@H]2[C@H](CS[C@H]2CCCCC(=O)*)N1

Experiments:
[1] = Macro-scale scaffold formation upon exposure to PBS / neutral pH buffer; assay type: physicochemical; conditions: upon exposure to PBS (1×) / neutral pH buffer
Source text: The tested peptides solutions appearance ranged from peptides giving clear liquid is solutions (e.g. 4, B15, B19, B25, B28, 30) to samples which become opaque in 1 to 7 days after dissolution (e.g. B3, B17, B22, B24, B27, 31) as shown in FIG. 2a (I). Most of the liquid solutions increased in viscosity over the first week after dissolution, however after ten days in water no appreciable changes happened at the macroscale.
(§1) Nonetheless, keeping constant the observation time, the storage moduli of peptide solutions previously dissolved (the day before) at 3% w/v were measured. Measurements were obtained of these peptide solutions, further diluted to 1% w/v at the same day of the experiment (unless otherwise specified), and, after addition of PBS, of the formed scaffolds.

[2] = tested on: human Neural Stem Cells (hNSCs); test: Phase contrast imaging of hNSC morphology on scaffolds; assay type: cell-based; conditions: 7 days in vitro
Procedure: In vitro tests were performed following a previously adopted methodology (5). Briefly, cells (at a concentration of 6×10^4 cells/cm^2) were seeded on the top-surface of each assembled scaffold previously assembled into 96 multiwells. Initially, cells were cultured with basal medium supplemented with βFGF (10 ng/ml), added to enhance neuronal progeny differentiation. At 3 days in vitro (DIV), βFGF medium was replaced with Leukemia Inhibitory Factor (LIF, Chemicon) (20 ng/ml) and Brain Derived Neurotrophic Factor (BDNF, Peprotech) (20 ng/ml). Fresh medium was added every three days. Positive and negative controls consisted of CULTREX-BME® substrate (R&D systems) (1:100 dilution in basal medium) and untreated bottom well surfaces respectively.
To assess the potential of the proposed SAPs for cell cultures and, more generally, for regenerative medicine, a two-dimensional cell culture protocol already developed for RADA16-I-like peptides was adapted (5). Briefly, human Neural Stem Cells (hNSCs), mechanically dissociated 1 day before plating, were seeded and cultured for one week in vitro over self-assembled scaffolds of B3, 4, B15, B17, B19, B22, B24, B25, B27, B28, 30, 31 and over non-coated tissue culture plastic wells (negative control).

[3] = Self-healing tests of assembled scaffolds after mechanical rupture; assay type: physicochemical; conditions: recovery of scaffold stiffness after mechanical rupture
Procedure: (§2) Rheological properties were determined for the peptides of the invention, using a controlled stress TA Instruments AR-2000ex rheometer (TAInstruments). A cone-and-plate geometry (acrylic cone diameter, 20 mm; angle, 1°; truncation gap 34 μm) was used. All measurements were obtained at a constant monitored temperature of 25° C. Preliminary strain sweeps were performed for each sample to define the linear viscoelastic region, thus ensuring that moduli were independent of strain. Time sweeps, after addition of PBS (1×) were recorded at constant angular frequency (ω=1 Hz). Frequency sweeps, both for peptide water solutions and for self-assembled scaffolds, were performed with the instrument in oscillatory mode at controlled strain of 1%. Final: onset point of rupture was calculated by linear interpolation and subsequent determination of the intersection of the G′ modes in the linear region and at material rupture respectively. G′ values were averaged in the 1-100 Hz region and between n=3 independent replicates. During self-healing tests the self-assembled scaffold was torn by applying a strain sweep (0.01%-1000% strain range) at 1 Hz oscillatory frequency. G′ values were is recorded in frequency sweep mode (at 1% strain) or, in time sweep mode (at 1 Hz and at 1% strain), before and after the strain sweep step, subsequent observations were performed every half hour or, in case of time sweep test, every 30 seconds. In all of the SAPs the difference between the storage moduli measured before and after PBS addition spanned from two to four orders of magnitude, proving the dramatic biomechanical changes taking place during scaffold gelation. Peptide B3 (1%) yielded a solid stiff scaffold (G′=2917 Pa), supporting the idea that ionic charges may screen the electrostatic repulsions given by positively charged lysine residues and speed up the spontaneous ongoing self-assembling process, on its turn giving an already viscous (G′=67 Pa) and opaque solution at day 1. Among the peptides giving soft scaffold (100 Pa-1000 Pa range) peptides 4, B19, B25, B28 and 30 were included. On the opposite side, SAPs yielding solid stiff scaffolds are B15, B22, B24, B27 and 31 (5000 Pa-9000 Pa range).
Solid scaffolds were obtained via addition of PBS (1×) in a cone-and-plate rheometer; we measured the storage modulus, the samples were subjected to a strain sweep (0.01% to 1000%) until and far beyond rupture occurred (i.e. is monitoring the sudden drop of G′ value). Samples were then left in place (keeping them hydrated with PBS) and their G′ were measured every 30 minutes via frequency sweep tests in the range of 0.1 Hz to 60 Hz. As a negative control KLD-12, a well-known SAP, was tested (4, 6). […] In FIG. 6b peptide B25 (3% w/v concentration) was assessed for self-healing in a time sweep mode, every 30 seconds, at 1 Hz and at 1% strain. Values of G′ recovered after 100 minutes (1000 Pa) and steadily plateaued over time. For peptides B3, B22, B25 and B27 full recovery was obtained at different time intervals after rupture, ranging from 60′ to 240′. Similar results were confirmed by multiple independent experiments, but at different time ranges, for all of the self-assembling peptides except for B19 and B28.
Samples were checked for rupture by tilting. After a maximum of four hours all of the samples returned to their solidified gel appearance. This healing could be repeated at will.

[4] = Rheological tests (storage modulus G′, cone-and-plate rheometer); assay type: physicochemical
Procedure: as §2
The mechanical properties of the synthesized peptides were tested with a cone-and-plate rheometer. Firstly, the G′ dependence of peptide water solutions on concentration increments, and consequently aggregation kinetics, was assessed as shown in FIG. 2b.
as §1

Row | Substance | solid scaffold / hydrogel formation [1] | other results
1 | Ac-F-GGG-AFASTKT-GIKVAV-CONH2 (Ac-FGGGAFASTKTGIKVAV-NH2) [compound 59] | yielded solid scaffolds | –
2 | Ac-F-GGG-AFSSTKT-CONH2 (Ac-FGGGAFSSTKT-NH2) [compound 61] | yielded solid scaffolds | –
3 | Ac-FGGG-PFSSTKT-CONH2 (Ac-FGGGPFSSTKT-NH2) [compound 37] | yielded solid scaffolds | –
4 | Ac-GGGPFSSTKT-CONH2 (Ac-GGGPFSSTKT-NH2) [peptide 2, biotin-deleted version of B3 that formed no scaffold] | prevented any scaffold formation | –
5 | Ac-WGGGAFASTKT-CONH2 (Ac-WGGGAFASTKT-NH2) [compound 30] | yielded solid scaffolds | cell morphology / degree of spreading [2]: single spherical cells
6 | Ac-Y-GGG-PFSSTKT-CONH2 (Ac-YGGGPFSSTKT-NH2) [peptide 60] | yielded solid scaffolds | –
7 | Biot-GGGGGPFSSTKT-CONH2 (Biotin-GGGGGPFSSTKT-NH2; SMILES C[C@@H](O)[C@H](NC(=O)[C@H](CCCCN)NC(=O)[C@@H](NC(=O)[C@H](CO)NC(=O)[C@H](CO)NC(=O)[C@H](Cc1ccccc1)NC(=O)[C@@H]1CCCN1C(=O)CNC(=O)CNC(=O)CNC(=O)CNC(=O)CNC(=O)CCCC[C@@H]1SC[C@@H]2NC(=O)N[C@@H]21)[C@@H](C)O)C(N)=O) [peptide B25] | yielded solid scaffolds | self-healing property [3]: self-healing property has been seen
8 | Biot-GGGKFSSTPT-CONH2 (Biotin-GGGKFSSTPT-NH2; SMILES C[C@@H](O)[C@H](NC(=O)[C@@H]1CCCN1C(=O)[C@@H](NC(=O)[C@H](CO)NC(=O)[C@H](CO)NC(=O)[C@H](Cc1ccccc1)NC(=O)[C@H](CCCCN)NC(=O)CNC(=O)CNC(=O)CNC(=O)CCCC[C@@H]1SC[C@@H]2NC(=O)N[C@@H]21)[C@@H](C)O)C(N)=O) [B64] | yielded solid scaffolds; also recorded: self-assembled giving a hydrogel upon exposure to PBS | –
9 | Biot-GGGPFSETKT-CONH2 (Biotin-GGGPFSETKT-NH2; SMILES C[C@@H](O)[C@H](NC(=O)[C@H](CCCCN)NC(=O)[C@@H](NC(=O)[C@H](CCC(=O)O)NC(=O)[C@H](CO)NC(=O)[C@H](Cc1ccccc1)NC(=O)[C@@H]1CCCN1C(=O)CNC(=O)CNC(=O)CNC(=O)CCCC[C@@H]1SC[C@@H]2NC(=O)N[C@@H]21)[C@@H](C)O)C(N)=O) [peptide B17] | yielded solid scaffolds | self-healing property [3]: self-healing property has been seen; cell morphology / degree of spreading [2]: proliferated cell clusters
10 | Biot-GGGPFSSKTT-CONH2 (Biotin-GGGPFSSKTT-NH2; SMILES C[C@@H](O)[C@H](NC(=O)[C@@H](NC(=O)[C@H](CCCCN)NC(=O)[C@H](CO)NC(=O)[C@H](CO)NC(=O)[C@H](Cc1ccccc1)NC(=O)[C@@H]1CCCN1C(=O)CNC(=O)CNC(=O)CNC(=O)CCCC[C@@H]1SC[C@@H]2NC(=O)N[C@@H]21)[C@@H](C)O)C(N)=O) [B66] | self-assembled giving a hydrogel upon exposure to PBS | –
11 | Biot-GGGPFSSTKT-CONH2 (Biotin-GGGPFSSTKT-NH2; SMILES C[C@@H](O)[C@H](NC(=O)[C@H](CCCCN)NC(=O)[C@@H](NC(=O)[C@H](CO)NC(=O)[C@H](CO)NC(=O)[C@H](Cc1ccccc1)NC(=O)[C@@H]1CCCN1C(=O)CNC(=O)CNC(=O)CNC(=O)CCCC[C@@H]1SC[C@@H]2NC(=O)N[C@@H]21)[C@@H](C)O)C(N)=O) [peptide B3] | shifting to solid scaffold when exposed to neutral pH buffer; also recorded: yielded solid scaffolds | storage modulus G′ of assembled scaffold (G′ post-assembling) ([4]; after PBS (1×) addition, averaged in 1-100 Hz range, 25° C., B3 at 1%): 2917 Pa; time for G′ of peptide solution to reach a plateau ([4]; dissolved at 3% concentration in water): 2 days; storage modulus G′ of peptide solution (pre-assembling) ([4]; water solution at day 1, 1%, before PBS): 67 Pa; self-healing property [3]: self-healing property has been seen; cell morphology / degree of spreading [2]: branched cells
12 | Biot-GGGPFSSTTK-CONH2 (Biotin-GGGPFSSTTK-NH2; SMILES C[C@@H](O)[C@H](NC(=O)[C@H](CO)NC(=O)[C@H](CO)NC(=O)[C@H](Cc1ccccc1)NC(=O)[C@@H]1CCCN1C(=O)CNC(=O)CNC(=O)CNC(=O)CCCC[C@@H]1SC[C@@H]2NC(=O)N[C@@H]21)C(=O)N[C@H](C(=O)N[C@@H](CCCCN)C(N)=O)[C@@H](C)O) [B67] | self-assembled giving a hydrogel upon exposure to PBS | –
13 | Biot-GGGPKSSTFT-CONH2 (Biotin-GGGPKSSTFT-NH2; SMILES C[C@@H](O)[C@H](NC(=O)[C@H](Cc1ccccc1)NC(=O)[C@@H](NC(=O)[C@H](CO)NC(=O)[C@H](CO)NC(=O)[C@H](CCCCN)NC(=O)[C@@H]1CCCN1C(=O)CNC(=O)CNC(=O)CNC(=O)CCCC[C@@H]1SC[C@@H]2NC(=O)N[C@@H]21)[C@@H](C)O)C(N)=O) [B65] | yielded solid scaffolds; also recorded: self-assembled giving a hydrogel upon exposure to PBS | –
14 | Biot-GGGPWSSTKT-CONH2 (Biotin-GGGPWSSTKT-NH2; SMILES C[C@@H](O)[C@H](NC(=O)[C@H](CCCCN)NC(=O)[C@@H](NC(=O)[C@H](CO)NC(=O)[C@H](CO)NC(=O)[C@H](Cc1c[nH]c2ccccc12)NC(=O)[C@@H]1CCCN1C(=O)CNC(=O)CNC(=O)CNC(=O)CCCC[C@@H]1SC[C@@H]2NC(=O)N[C@@H]21)[C@@H](C)O)C(N)=O) [B27] | yielded solid scaffolds | self-healing property [3]: self-healing property has been seen
15 | Biot-PFSSTKT-CONH2 (Biotin-PFSSTKT-NH2; SMILES C[C@@H](O)[C@H](NC(=O)[C@H](CCCCN)NC(=O)[C@@H](NC(=O)[C@H](CO)NC(=O)[C@H](CO)NC(=O)[C@H](Cc1ccccc1)NC(=O)[C@@H]1CCCN1C(=O)CCCC[C@@H]1SC[C@@H]2NC(=O)N[C@@H]21)[C@@H](C)O)C(N)=O) [peptide B7, non-assembling control peptide] | not give a solid scaffold | –
16 | Biotin-G-AFASTKT-CONH2 [B50] | yielded solid scaffolds | –
17 | Biotin-GGGAFASTKA-NH2 [B33] | yielded solid scaffolds | –
18 | Biotin-GGGAWASTKT-NH2 [B32] | yielded solid scaffolds | –
19 | Biotin-GGGGG-AFASTKT-CONH2 [B51] | yielded solid scaffolds | –
20 | Biotin-GGGPFSSTKTP-NH2 [B34] | yielded solid scaffolds | –
